Data published in the supplement of paper PMC10065799, “High-throughput profiling of sequence recognition by tyrosine kinases and SH2 domains using bacterial peptide display” (eLife, 2023).

Columns and labels:
c-Abl (mouse) = test: phosphorylation enrichment, bacterial display (enrichment ratio); higher = better substrate or ligand; peptides without Tyr show the background
EPHB2 = EPHB2 (UniProt P29323); test: as above
c-Src = test: as above
Jak2 = Jak2 (UniProt O60674); test: as above
AncSZ = test: as above
FGFR1 = FGFR1 (UniProt P11362); test: as above
Hck = Hck (UniProt P08631); test: as above
EPHB1 = EPHB1 (UniProt P54762); test: as above
Fes = Fes (UniProt P07332); test: as above
FGFR3 = FGFR3 (UniProt P22607); test: as above
Fyn = Fyn (UniProt P06241); test: as above
MERTK = MERTK (UniProt Q12866); test: as above
Fer (mouse) = test: as above
SHP2-C SH2 = test: SH2 binding enrichment of the phosphorylated peptide, bacterial display (enrichment ratio); higher = better substrate or ligand; peptides without Tyr show the background
Grb2 SH2 = Grb2 SH2 (UniProt P62993); test: as above
c-Src SH2 = test: as above
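For SH2 binding enrichment of the phosphorylated peptide, bacterial display in this document: peptide library displayed on the E. coli surface as eCPX fusions, selected cells deep-sequenced, score is each peptide's frequency after selection divided by its frequency in the input.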
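For phosphorylation enrichment, bacterial display in this document: 11-residue human phosphosite peptides and single-mutation variants displayed on the E. coli surface, counted by deep sequencing, each peptide's frequency after selection divided by its frequency in the unselected input library; frequency after pTyr selection over input frequency; kinase dosed for 20-30% of maximal phosphorylation in three min.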

Fes, sequence (P07332 whole entry, looked up): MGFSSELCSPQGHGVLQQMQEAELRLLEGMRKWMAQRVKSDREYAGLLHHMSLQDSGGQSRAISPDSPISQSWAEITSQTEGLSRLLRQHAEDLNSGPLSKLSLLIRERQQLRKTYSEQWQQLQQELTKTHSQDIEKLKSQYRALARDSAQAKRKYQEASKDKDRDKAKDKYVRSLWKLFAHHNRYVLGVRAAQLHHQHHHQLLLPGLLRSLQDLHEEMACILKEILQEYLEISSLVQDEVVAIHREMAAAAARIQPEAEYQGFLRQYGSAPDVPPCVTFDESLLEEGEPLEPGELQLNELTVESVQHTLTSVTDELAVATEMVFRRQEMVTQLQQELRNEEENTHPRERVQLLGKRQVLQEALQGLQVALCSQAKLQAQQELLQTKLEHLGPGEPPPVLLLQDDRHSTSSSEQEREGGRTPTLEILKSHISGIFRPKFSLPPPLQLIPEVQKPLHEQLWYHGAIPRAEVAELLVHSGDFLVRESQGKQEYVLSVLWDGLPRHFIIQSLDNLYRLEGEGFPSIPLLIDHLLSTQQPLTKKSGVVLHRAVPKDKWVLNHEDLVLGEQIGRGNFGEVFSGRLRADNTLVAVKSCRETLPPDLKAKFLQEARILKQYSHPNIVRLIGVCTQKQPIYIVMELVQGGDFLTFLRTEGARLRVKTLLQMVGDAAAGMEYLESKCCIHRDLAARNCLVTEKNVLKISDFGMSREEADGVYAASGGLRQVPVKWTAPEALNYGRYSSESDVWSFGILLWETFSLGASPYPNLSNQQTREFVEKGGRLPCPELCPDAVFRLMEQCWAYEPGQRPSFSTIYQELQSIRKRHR
EPHB1, sequence (P54762 whole entry, looked up): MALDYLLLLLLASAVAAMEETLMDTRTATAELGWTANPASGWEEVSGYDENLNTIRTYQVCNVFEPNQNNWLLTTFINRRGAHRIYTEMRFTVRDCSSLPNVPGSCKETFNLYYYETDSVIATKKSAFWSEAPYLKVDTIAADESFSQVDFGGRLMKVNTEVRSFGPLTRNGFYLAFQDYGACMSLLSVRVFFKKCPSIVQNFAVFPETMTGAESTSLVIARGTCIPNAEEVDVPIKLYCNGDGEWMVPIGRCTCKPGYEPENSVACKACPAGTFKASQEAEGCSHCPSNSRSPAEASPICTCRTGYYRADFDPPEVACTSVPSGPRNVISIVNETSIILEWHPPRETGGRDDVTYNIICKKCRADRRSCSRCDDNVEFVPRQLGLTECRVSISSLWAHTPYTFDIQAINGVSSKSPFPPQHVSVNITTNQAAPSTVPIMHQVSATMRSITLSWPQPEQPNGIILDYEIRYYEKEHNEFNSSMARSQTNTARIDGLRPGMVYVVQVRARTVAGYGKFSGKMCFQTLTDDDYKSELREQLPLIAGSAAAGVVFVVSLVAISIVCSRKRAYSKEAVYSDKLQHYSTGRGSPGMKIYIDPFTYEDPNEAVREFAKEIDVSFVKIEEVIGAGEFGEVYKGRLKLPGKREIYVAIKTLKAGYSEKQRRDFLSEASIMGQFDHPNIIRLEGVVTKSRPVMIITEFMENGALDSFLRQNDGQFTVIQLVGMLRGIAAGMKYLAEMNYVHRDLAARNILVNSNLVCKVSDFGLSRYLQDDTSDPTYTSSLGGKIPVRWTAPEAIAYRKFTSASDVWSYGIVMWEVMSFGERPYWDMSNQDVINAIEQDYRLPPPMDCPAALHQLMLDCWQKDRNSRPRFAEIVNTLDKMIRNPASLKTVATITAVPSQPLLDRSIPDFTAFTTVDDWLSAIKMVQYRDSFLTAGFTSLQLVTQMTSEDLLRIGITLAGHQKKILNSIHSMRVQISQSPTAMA
Grb2 SH2, sequence (P62993 whole entry, looked up): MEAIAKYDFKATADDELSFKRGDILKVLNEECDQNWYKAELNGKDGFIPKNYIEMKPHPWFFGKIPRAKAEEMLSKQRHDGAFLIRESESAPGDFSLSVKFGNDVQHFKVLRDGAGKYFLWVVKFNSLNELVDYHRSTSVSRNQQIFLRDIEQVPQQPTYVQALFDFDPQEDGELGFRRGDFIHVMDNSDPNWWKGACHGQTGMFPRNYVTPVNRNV
EPHB2, sequence (P29323 whole entry, looked up): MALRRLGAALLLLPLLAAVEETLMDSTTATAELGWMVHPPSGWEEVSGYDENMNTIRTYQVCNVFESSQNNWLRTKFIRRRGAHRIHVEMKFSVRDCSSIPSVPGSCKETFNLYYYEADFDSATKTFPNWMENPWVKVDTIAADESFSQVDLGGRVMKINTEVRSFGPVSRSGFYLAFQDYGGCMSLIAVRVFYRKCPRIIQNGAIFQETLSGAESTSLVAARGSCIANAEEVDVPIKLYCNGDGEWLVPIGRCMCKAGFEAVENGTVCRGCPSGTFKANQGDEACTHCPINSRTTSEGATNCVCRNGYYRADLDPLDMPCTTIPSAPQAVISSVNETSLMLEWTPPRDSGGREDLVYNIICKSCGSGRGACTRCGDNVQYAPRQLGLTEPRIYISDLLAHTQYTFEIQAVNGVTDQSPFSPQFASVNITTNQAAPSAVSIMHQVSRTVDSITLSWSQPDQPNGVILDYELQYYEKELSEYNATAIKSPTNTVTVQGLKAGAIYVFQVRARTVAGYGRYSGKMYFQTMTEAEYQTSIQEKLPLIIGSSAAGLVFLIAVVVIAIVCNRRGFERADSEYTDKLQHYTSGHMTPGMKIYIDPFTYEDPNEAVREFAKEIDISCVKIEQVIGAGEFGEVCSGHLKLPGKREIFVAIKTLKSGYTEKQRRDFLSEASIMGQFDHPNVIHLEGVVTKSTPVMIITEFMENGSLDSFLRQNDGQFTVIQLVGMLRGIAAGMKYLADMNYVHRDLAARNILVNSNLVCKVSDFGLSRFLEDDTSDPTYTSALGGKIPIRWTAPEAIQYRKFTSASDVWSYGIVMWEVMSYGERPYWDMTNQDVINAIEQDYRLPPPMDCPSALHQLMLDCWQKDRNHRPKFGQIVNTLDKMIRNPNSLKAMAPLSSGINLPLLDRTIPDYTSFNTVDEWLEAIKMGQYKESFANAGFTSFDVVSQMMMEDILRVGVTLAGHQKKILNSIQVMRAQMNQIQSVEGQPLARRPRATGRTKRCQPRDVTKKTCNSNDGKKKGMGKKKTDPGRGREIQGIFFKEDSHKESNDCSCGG
Jak2, sequence (O60674 whole entry, looked up): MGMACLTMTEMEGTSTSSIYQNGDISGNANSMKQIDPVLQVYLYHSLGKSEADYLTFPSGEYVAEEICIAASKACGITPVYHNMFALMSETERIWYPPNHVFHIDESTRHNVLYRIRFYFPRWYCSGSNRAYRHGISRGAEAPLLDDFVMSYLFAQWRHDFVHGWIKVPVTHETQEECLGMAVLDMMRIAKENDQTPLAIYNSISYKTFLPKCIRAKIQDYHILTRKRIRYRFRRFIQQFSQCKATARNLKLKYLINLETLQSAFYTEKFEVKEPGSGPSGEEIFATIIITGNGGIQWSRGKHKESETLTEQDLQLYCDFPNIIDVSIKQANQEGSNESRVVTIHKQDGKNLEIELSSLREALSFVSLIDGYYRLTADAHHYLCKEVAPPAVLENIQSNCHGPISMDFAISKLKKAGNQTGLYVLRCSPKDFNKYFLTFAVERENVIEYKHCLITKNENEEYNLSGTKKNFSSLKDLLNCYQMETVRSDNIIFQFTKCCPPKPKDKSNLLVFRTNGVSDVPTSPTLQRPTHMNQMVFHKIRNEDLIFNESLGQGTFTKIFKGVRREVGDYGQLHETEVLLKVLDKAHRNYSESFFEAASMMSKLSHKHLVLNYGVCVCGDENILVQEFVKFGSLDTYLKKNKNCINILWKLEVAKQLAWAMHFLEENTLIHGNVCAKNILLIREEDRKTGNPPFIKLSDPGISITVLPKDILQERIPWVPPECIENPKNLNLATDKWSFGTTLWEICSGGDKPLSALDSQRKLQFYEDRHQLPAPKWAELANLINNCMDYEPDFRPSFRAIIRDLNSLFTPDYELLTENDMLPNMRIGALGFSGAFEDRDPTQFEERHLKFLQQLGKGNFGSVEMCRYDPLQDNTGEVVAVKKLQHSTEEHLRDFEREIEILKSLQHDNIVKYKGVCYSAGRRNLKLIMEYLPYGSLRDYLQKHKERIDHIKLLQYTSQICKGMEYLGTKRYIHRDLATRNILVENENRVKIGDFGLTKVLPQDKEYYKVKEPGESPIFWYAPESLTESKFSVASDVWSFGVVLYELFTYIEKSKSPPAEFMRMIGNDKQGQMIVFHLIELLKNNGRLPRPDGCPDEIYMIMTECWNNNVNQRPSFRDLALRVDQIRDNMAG
FGFR1, sequence (P11362 whole entry, looked up): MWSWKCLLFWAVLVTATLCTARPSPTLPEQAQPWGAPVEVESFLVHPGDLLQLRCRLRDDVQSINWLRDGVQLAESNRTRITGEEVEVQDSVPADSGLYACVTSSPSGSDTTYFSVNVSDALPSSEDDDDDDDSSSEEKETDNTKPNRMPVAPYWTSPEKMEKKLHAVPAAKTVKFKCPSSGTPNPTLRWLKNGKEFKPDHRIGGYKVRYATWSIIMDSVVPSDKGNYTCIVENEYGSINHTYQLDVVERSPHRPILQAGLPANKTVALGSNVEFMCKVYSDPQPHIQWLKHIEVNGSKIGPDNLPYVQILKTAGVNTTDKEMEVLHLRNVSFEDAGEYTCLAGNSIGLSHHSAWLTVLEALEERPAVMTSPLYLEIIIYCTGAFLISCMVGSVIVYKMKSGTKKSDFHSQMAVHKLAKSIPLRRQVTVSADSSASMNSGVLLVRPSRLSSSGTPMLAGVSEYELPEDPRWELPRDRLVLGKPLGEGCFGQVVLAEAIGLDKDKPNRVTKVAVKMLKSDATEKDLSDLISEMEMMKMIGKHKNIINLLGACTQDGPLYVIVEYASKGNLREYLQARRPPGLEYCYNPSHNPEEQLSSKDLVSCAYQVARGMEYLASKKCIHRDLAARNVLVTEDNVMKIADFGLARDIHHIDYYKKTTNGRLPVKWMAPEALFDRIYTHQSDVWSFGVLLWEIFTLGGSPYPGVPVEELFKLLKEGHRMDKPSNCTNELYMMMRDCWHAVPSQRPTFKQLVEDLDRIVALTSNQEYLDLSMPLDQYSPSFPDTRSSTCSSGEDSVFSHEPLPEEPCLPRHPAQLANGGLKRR

| Sequence | phosphorylation enrichment (c-Abl (mouse)) | phosphorylation enrichment (EPHB2) | phosphorylation enrichment (c-Src) | phosphorylation enrichment (Jak2) | phosphorylation enrichment (AncSZ) | phosphorylation enrichment (FGFR1) | phosphorylation enrichment (Hck) | phosphorylation enrichment (EPHB1) | phosphorylation enrichment (Fes) | phosphorylation enrichment (FGFR3) | phosphorylation enrichment (Fyn) | phosphorylation enrichment (MERTK) | phosphorylation enrichment (Fer (mouse)) | SH2 binding enrichment (SHP2-C SH2) | SH2 binding enrichment (Grb2 SH2) | SH2 binding enrichment (c-Src SH2) |
| --- | --- | --- | --- | --- | --- | --- | --- | --- | --- | --- | --- | --- | --- | --- | --- | --- |
| VFPIDYYFPPQ [AR_Y552_L548F] | 0.922 | 3.65 | 1.34 | 6.13 | 5.64 | 13.8 | 0.851 | 3.22 | 0.914 | 12.9 | 0.816 | 2.24 | 0.536 | 1.08 | 1.24 | 1.04 |
| SLEKSYELPDG [ACTA1_Y242] | 0.712 | 0.531 | 0.479 | 0.913 | 1.06 | 0.544 | 0.534 | 0.614 | 1.15 | 0.707 | 0.49 | 0.467 | 0.538 | 0.65 | 0.824 | 1.26 |
| SAVVPYEPPEV [TP53_Y220_V216A] | 0.649 | 0.608 | 0.484 | 0.998 | 1.23 | 0.586 | 0.513 | 0.643 | 1.21 | 0.761 | 0.556 | 0.409 | 0.479 | 0.502 | 0.806 | 0.643 |
| CTTIHYHFMCN [TP53_Y234_N235H_YF] | 0.785 | 0.637 | 0.488 | 0.902 | 1.1 | 0.599 | 0.48 | 0.549 | 1.06 | 0.729 | 0.542 | 0.441 | 0.632 | 2.26 | 1.65 | 1.67 |
| IYRASYVPFAA [RBM47_Y541_G538R] | 7.02 | 0.571 | 0.681 | 0.82 | 1.04 | 0.562 | 0.657 | 0.81 | 0.897 | 0.645 | 0.593 | 0.66 | 0.521 | 0.742 | 0.866 | 0.611 |
| PRDSGYSYETI [MAP1B_Y1921_S1917R] | 0.542 | 0.745 | 0.467 | 0.781 | 0.917 | 0.679 | 0.405 | 0.448 | 1.29 | 0.898 | 0.354 | 0.55 | 0.777 | 0.564 | 0.774 | 12.7 |
| AHLLQYNHRVK [LGALS3_Y221] | 0.668 | 0.493 | 0.459 | 0.562 | 0.592 | 0.397 | 0.366 | 0.461 | 0.604 | 0.442 | 0.288 | 0.42 | 0.371 | 1.13 | 1.03 | 0.874 |
| REAAAYPHGRL [AGXT_Y297_L298P] | 0.415 | 0.442 | 0.329 | 0.704 | 0.516 | 0.25 | 0.404 | 0.254 | 0.46 | 0.41 | 0.274 | 0.32 | 0.192 | 0.739 | 0.989 | 0.55 |
| MSRDIYSTDYY [NTRK1_Y676] | 0.733 | 8.84 | 5.12 | 1.01 | 1.83 | 4.81 | 3.99 | 6.24 | 0.933 | 3.6 | 4.75 | 9.04 | 1.5 | 0.752 | 1.07 | 0.729 |
| CSHMFYGKQCC [ADAMTS16_Y1211_K1209M] | 0.713 | 0.543 | 0.573 | 0.852 | 0.839 | 0.464 | 0.519 | 0.587 | 1.01 | 0.606 | 0.653 | 0.485 | 0.539 | 0.827 | 1.14 | 0.772 |
| VNTTLYEKFTY [TEK_Y1108] | 0.908 | 1.13 | 3.87 | 0.804 | 0.983 | 0.483 | 4.55 | 1.92 | 0.879 | 0.648 | 3.69 | 4.25 | 5.72 | 0.826 | 0.764 | 3.14 |
| KANEYYPVVII [ADAMTS18_Y765_L769I] | 2.4 | 2.08 | 0.704 | 3.18 | 2.63 | 12.8 | 0.738 | 1.65 | 0.978 | 10.8 | 0.613 | 0.81 | 1.45 | 0.458 | 0.721 | 0.383 |
| MEIHAYLKLLE [LMNA_Y376_R377L] | 1.24 | 0.708 | 0.569 | 1.62 | 1.33 | 0.517 | 0.574 | 0.859 | 1.8 | 0.959 | 0.521 | 0.48 | 0.587 | 0.714 | 0.842 | 0.732 |
| LIDSSYLTRTA [GREB1L_Y1063] | 0.634 | 0.746 | 0.489 | 0.651 | 0.748 | 0.507 | 0.425 | 0.43 | 0.668 | 0.44 | 0.571 | 0.527 | 0.905 | 0.714 | 0.844 | 0.426 |
| TDLAFYLVCKG [ASL_Y376_R379C_YF] | 1.14 | 0.593 | 0.48 | 1.57 | 1.31 | 0.551 | 0.547 | 0.79 | 1.7 | 0.94 | 0.411 | 0.446 | 0.647 | 0.461 | 0.732 | 0.388 |
| QSSALYEDHYL [ASS1_Y83_R86H] | 0.734 | 2.07 | 1.14 | 1.18 | 1.24 | 0.477 | 1.58 | 5.41 | 1.18 | 0.702 | 0.904 | 1.33 | 18.5 | 0.54 | 0.881 | 0.524 |
| DRIVNYSRASI [ATP7A_Y1459] | 0.585 | 0.4 | 0.37 | 0.48 | 0.538 | 0.423 | 0.405 | 0.432 | 0.589 | 0.426 | 0.374 | 0.383 | 0.41 | 0.88 | 0.768 | 0.498 |

| Sequence | phosphorylation enrichment (c-Abl (mouse)) | phosphorylation enrichment (EPHB2) | phosphorylation enrichment (c-Src) | phosphorylation enrichment (Jak2) | phosphorylation enrichment (AncSZ) | phosphorylation enrichment (FGFR1) | phosphorylation enrichment (Hck) | phosphorylation enrichment (EPHB1) | phosphorylation enrichment (Fes) | phosphorylation enrichment (FGFR3) | phosphorylation enrichment (Fyn) | phosphorylation enrichment (MERTK) | phosphorylation enrichment (Fer (mouse)) | SH2 binding enrichment (SHP2-C SH2) | SH2 binding enrichment (Grb2 SH2) | SH2 binding enrichment (c-Src SH2) |
| --- | --- | --- | --- | --- | --- | --- | --- | --- | --- | --- | --- | --- | --- | --- | --- | --- |
| FPLAEYTEVKT [ALDH1A3_Y497_A493P_YF] | 0.709 | 0.575 | 0.528 | 1.01 | 1.34 | 0.671 | 0.54 | 0.685 | 0.968 | 0.82 | 0.502 | 0.4 | 0.516 | 0.841 | 0.884 | 1.87 |
| ENFDDYMKDVG [FABP4_Y20_E23D] | 1.13 | 0.663 | 0.43 | 1.24 | 1.17 | 0.546 | 0.554 | 0.635 | 1.12 | 0.764 | 0.564 | 0.52 | 0.443 | 0.729 | 0.832 | 0.428 |
| PLQNTYNYNVL [SLC4A1_Y553_K551N] | 1.51 | 1.6 | 0.745 | 0.67 | 0.634 | 0.37 | 0.6 | 0.939 | 0.894 | 0.545 | 0.65 | 0.737 | 0.233 | 0.865 | 0.81 | 2.12 |
| GGPTFYIDTNA [ACTL6A_Y69_YF] | 0.775 | 0.626 | 0.439 | 1.13 | 1.24 | 0.542 | 0.53 | 0.707 | 1.39 | 0.868 | 0.458 | 0.41 | 0.529 | 0.608 | 0.874 | 0.577 |
| SSDKVYAHQMV [MLH1_Y379] | 0.537 | 0.401 | 0.514 | 0.431 | 0.551 | 0.379 | 0.458 | 0.404 | 0.573 | 0.416 | 0.538 | 0.476 | 0.494 | 0.594 | 0.792 | 0.44 |
| SGSWSYNTSTE [SELE_Y24_A21S] | 0.787 | 0.586 | 0.503 | 0.968 | 0.925 | 0.527 | 0.536 | 0.56 | 1.07 | 0.768 | 0.5 | 0.503 | 0.393 | 0.565 | 0.826 | 0.55 |
| RESSGYLRLAF [MEP1A_Y481] | 1.23 | 1.21 | 1.11 | 2.85 | 1.46 | 0.593 | 0.872 | 1.08 | 1.8 | 1.25 | 0.732 | 1.07 | 0.93 | 5.52 | 1.18 | 0.991 |
| KPPFSYNALIR [FOXG1_Y186_M191R] | 0.565 | 0.55 | 0.504 | 0.618 | 0.695 | 0.505 | 0.53 | 0.478 | 0.807 | 0.519 | 0.482 | 0.477 | 0.446 | 0.956 | 1.01 | 0.742 |
| SGGCSYGSGGG [KRT1_Y539_G537C] | 0.637 | 0.478 | 0.394 | 0.773 | 0.803 | 0.402 | 0.446 | 0.475 | 0.916 | 0.561 | 0.381 | 0.346 | 0.462 | 0.655 | 0.782 | 0.462 |
| FSQQTYFRVSN [ABCD1_Y180_YF] | 0.625 | 0.564 | 0.931 | 3.23 | 0.902 | 1.23 | 0.749 | 0.654 | 0.723 | 1.19 | 0.435 | 0.41 | 0.415 | 1.16 | 0.887 | 1.09 |
| ENGPYYASYPP [GDAP2_Y488_T489A] | 3.72 | 4.76 | 5.28 | 0.662 | 1.09 | 2.69 | 3.82 | 1.64 | 0.735 | 2.01 | 6.13 | 6.92 | 1.29 | 0.773 | 0.729 | 0.632 |
| SDVWSYGVTMW [ZAP70_Y525] | 0.979 | 0.695 | 0.54 | 1.26 | 1.15 | 0.557 | 0.695 | 0.688 | 1.39 | 0.847 | 0.477 | 0.502 | 0.63 | 0.576 | 0.84 | 0.614 |
| PGLSSYGVPGS [FLNB_Y1530_A1534G] | 0.715 | 0.578 | 0.454 | 0.355 | 0.774 | 0.623 | 0.543 | 0.494 | 0.786 | 0.643 | 0.598 | 0.622 | 0.508 | 0.611 | 0.934 | 0.534 |
| WAFNLYDINKD [KCNIP3_Y174] | 0.91 | 1.64 | 1.78 | 1.17 | 1.43 | 0.541 | 2.65 | 1.27 | 1.45 | 0.763 | 1.92 | 1.3 | 1.82 | 0.6 | 0.718 | 0.563 |
| NFATLHLKIFH [PDE6B_Y219_Y219H_YF] | 0.918 | 0.74 | 0.522 | 1.24 | 1.26 | 0.652 | 0.492 | 0.607 | 1.44 | 0.817 | 0.519 | 0.56 | 0.565 | 1.26 | 1.22 | 1.04 |
| RSFLSYYTSHV [NEFL_Y442_P440L] | 0.606 | 0.761 | 0.561 | 1.71 | 0.996 | 0.575 | 0.421 | 0.998 | 0.876 | 0.834 | 0.692 | 1.44 | 0.491 | 1.63 | 1.12 | 1.66 |
